Three molecules from patent publication US20240417476A1 (ATYR PHARMA, published 2024) can be followed below.

One assay addresses T1, NRP2v3.
T1 construct: not the NanoLuc-tagged construct m33; also called human NRP2 v3 expressed on Expi293F cells; NRP2a v3
T1 chain: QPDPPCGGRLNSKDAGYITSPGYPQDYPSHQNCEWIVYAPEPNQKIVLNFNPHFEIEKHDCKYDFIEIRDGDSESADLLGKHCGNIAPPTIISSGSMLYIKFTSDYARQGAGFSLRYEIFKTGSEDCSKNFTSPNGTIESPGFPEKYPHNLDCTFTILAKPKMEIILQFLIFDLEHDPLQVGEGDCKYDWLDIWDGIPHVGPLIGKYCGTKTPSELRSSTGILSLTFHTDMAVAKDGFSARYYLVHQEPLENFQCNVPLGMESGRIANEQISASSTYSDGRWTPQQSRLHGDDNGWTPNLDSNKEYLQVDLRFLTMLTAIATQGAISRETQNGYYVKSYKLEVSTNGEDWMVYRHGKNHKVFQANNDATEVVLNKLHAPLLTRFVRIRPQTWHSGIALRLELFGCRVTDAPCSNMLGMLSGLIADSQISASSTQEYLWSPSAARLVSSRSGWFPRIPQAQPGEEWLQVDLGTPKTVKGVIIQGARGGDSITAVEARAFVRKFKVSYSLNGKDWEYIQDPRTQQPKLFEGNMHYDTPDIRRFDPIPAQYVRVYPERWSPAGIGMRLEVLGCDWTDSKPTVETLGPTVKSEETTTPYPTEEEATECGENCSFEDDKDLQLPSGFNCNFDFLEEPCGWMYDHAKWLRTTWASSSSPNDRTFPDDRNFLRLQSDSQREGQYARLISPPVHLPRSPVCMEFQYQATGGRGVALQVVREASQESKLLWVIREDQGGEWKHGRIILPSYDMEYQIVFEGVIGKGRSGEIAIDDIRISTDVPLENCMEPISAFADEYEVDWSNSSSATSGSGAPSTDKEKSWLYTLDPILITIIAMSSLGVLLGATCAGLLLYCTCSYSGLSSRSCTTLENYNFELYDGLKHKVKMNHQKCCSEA
Put plainly: flow cytometry, Expi293F cells transfected with the target, fluorescent anti-mouse secondary; MFI signal relative to mock-transfected cells. (Flow cytometry measures light scatter and fluorescence of single cells or particles in a stream.)

For assay [1], the target named is T2, human NRP2b expressed on Expi293F cells (human).
T2 construct: also called full length NRP2b
T2 chain: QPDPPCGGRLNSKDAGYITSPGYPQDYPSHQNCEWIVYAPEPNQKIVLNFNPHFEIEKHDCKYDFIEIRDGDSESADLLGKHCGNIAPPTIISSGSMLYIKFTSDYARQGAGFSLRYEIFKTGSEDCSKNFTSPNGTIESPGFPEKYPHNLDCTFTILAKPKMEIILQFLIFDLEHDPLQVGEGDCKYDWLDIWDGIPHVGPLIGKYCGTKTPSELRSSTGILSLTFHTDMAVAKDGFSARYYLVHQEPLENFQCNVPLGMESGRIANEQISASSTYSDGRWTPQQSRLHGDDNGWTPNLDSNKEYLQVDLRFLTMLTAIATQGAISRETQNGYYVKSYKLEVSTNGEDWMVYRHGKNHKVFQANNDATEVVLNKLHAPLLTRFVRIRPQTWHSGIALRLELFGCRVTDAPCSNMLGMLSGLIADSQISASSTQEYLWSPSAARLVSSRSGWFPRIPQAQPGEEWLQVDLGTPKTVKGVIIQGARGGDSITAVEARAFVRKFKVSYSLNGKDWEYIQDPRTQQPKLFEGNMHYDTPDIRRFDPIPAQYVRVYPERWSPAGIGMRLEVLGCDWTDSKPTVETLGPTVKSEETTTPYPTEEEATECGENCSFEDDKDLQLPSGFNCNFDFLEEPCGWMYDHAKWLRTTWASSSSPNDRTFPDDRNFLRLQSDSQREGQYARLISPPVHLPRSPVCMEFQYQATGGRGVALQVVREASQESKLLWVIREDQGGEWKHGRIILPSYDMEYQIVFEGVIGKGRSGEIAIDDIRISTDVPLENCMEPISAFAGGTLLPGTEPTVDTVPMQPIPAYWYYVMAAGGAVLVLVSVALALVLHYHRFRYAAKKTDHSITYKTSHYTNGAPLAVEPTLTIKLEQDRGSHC
The description is as above.
Method: (§1) Signal to noise was calculated as the staining intensity of transfected cells compared to an un-transfected ‘mock’ population.

Assay [2] has as its target T3, Mid-mNRP2A peptide (biotinylated) (mouse, biotin-conjugated, site not stated).
T3 peptide: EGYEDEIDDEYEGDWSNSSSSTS
As to the kind of experiment: BLI, peptide on sensor. (In general: In BLI a coated tip is dipped into the sample, and binding shifts an interference pattern.)

Assay [3] deals with mNRP2b peptide (biotinylated) (mouse, biotin-conjugated, site not stated). Put plainly: BLI, peptide on sensor.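 Further: octet RED96e biolayer interferometry with biotin-conjugated NRP2 peptides spanning isoform-specific regions (human and mouse) loaded on biosensors, antibodies applied at 50 nM, association read over 300 s.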
The target of assay [4] is T4, Mid-NRP2A peptide (biotinylated) (human, biotin-conjugated, site not stated).
T4 peptide: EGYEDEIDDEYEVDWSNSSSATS
As to the kind of experiment: BLI, peptide on sensor.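 Further: octet RED96e biolayer interferometry with biotin-conjugated NRP2 peptides spanning isoform-specific regions (human and mouse) loaded on biosensors, antibodies applied at 50 nM, association read over 300 s.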

Assay [5] deals with T5, NRP2a_scan 5 peptide (biotinylated) (human, also: biotin-conjugated, site not given here).
T5 peptide: EDEIDDEYEVDW
Put plainly: BLI, peptide on sensor.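 Further: octet RED96e biolayer interferometry with biotin-conjugated NRP2 peptides spanning isoform-specific regions (human and mouse) loaded on biosensors, antibodies applied at 50 nM, association read over 300 s.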

The target of assay [6] is T6, NRP2a_scan 4 peptide (biotinylated) (human, also: biotin-conjugated, site not given here).
T6 peptide: EGYEDEIDDEYE
As to the kind of experiment: BLI, peptide on sensor.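 Further: octet RED96e biolayer interferometry with biotin-conjugated NRP2 peptides spanning isoform-specific regions (human and mouse) loaded on biosensors, antibodies applied at 50 nM, association read over 300 s.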

In assay [7] the target is T7, NRP2a_scan 3 peptide (biotinylated) (human, also: biotin-conjugated, site not given here).
T7 peptide: HEREGYEDEIDD
As to the kind of experiment: BLI, peptide on sensor.

For assay [8], the target named is T8, NRP2a_scan 1 peptide (biotinylated) (human, also: biotin-conjugated, site not given here).
T8 peptide: VDIPEIHEREGY
As to the kind of experiment: BLI, peptide on sensor.

Assay [9] deals with T9, NRP2a_scan 7 peptide (biotinylated) (human, also: biotin-conjugated, site not given here).
T9 peptide: EYEVDWSNSSSA
Put plainly: BLI, peptide on sensor.

In assay [10] the target is Short NRP2A peptide (biotinylated) (human, biotin-conjugated, site not stated). Put plainly: BLI, peptide on sensor.
The target of assay [11] is T10, NRP2a_scan 2 peptide (biotinylated) (human, also: biotin-conjugated, site not given here).
T10 peptide: PEIHEREGYEDE
As to the kind of experiment: BLI, peptide on sensor.

Assay [12] deals with T11, NRP2a_scan 6 peptide (biotinylated) (human, also: biotin-conjugated, site not given here).
T11 peptide: IDDEYEVDWSNS
As to the kind of experiment: BLI, peptide on sensor.

In assay [13] the target is T12, human NRP2a v2 expressed on Expi293F cells (human, UniProt O60462 23-931).
T12 construct: cDNA Origene RCC220706; also called NRP2 v2
Put plainly: flow cytometry, Expi293F cells transfected with the target, fluorescent anti-mouse secondary; MFI signal relative to mock-transfected cells.
Method: as §1

The target in assay [14] is T13, NRP2b peptide (biotinylated) (human, biotin-conjugated, site not stated).
T13 construct: also called NRP2b isoform specific peptide
T13 peptide: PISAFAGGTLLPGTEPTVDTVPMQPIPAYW
Put plainly: peptide ELISA. For orientation: In an ELISA, binding on a coated surface is turned into a signal by an enzyme label.

In assay [15] the target is T14, NRP2A peptide (biotinylated) (human, biotin-conjugated, site not stated).
T14 construct: also called NPR2A; NRP2a specific peptide
Put plainly: BLI, isoform peptide on sensor, 50 nM antibody.

Assay [16] deals with T15, mNRP2A peptide (biotinylated) (mouse, biotin-conjugated, site not stated).
T15 construct: also called mouse NRP2 isoform a peptide
Put plainly: BLI, peptide on sensor, 50 nM antibody.

Ends that are not written are not given here.

Sequence of mNRP2b peptide (biotinylated) (mouse, biotin-conjugated, site not stated) (peptide, as listed by the source): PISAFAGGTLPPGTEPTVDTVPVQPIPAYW
Method for NRP2v3: as §1

B1: aNRP2-408v2 (antibody, V domains shown)
VH: EVKLVESGGGLVKPGGSLKLSCAASGFTFSSYAMSWVRQTPEKRLEWVASISRGSITYYPDSVKGRFTISRDNAGNILYLQMSSLRSEDTAMYYCAREYYYAMDYWGQGTSVTVSS
VL: DIQMTQSPSSLSASLGERVSLTCRASQDIGSRLNWLQQEPDGTIKRLIYATSSLDSGVPKRFSGSRSGSDYSLTISSLESEDFVDYYCLQYASSPYTFGGGTKLEIK
notes: Mouse monoclonal
Turning to B1, the binding result with NRP2v3 was “no binding”; in assay [1] it was “no binding”; in [2], “no binding (tested: 50 nM)”; in assay [3], “no binding (tested: 50 nM)”; in [4], “no binding (tested: 50 nM)”; in assay [5] it was “no binding (tested: 50 nM)”. For the same molecule, the binding result in assay [6], in assay [7], in assay [8], in assay [9], in assay [10] and in [11] was “no binding (tested: 50 nM)” in each case. Further, the binding result in assay [12] is given as “no binding (tested: 50 nM)”; in [13], “binds”; in assay [14] it was “no binding (tested: <3x blank)”; in assay [15], “binds”; in assay [16] it was “binds”.

B2: aNRP2-409v3 (antibody, V domains shown)
VH: EVQFVETGGGLVQPKGSLKLSCAASGFTFNTNAMNWVRQAPGKGLEWVARIRTKSNNYATYYADSVKDRFTISRDDSQNILYLQMNNLKTEDTAMYYCVTLDSSGYVWFAYWGQGTLVTVSA
VL: DIQMTQSPSSLSASLGERVSLTCRASQDIGSRLNWLQQEPDGTIKRLIYATSSLDSGVPKRFSGSRSGSDYSLTISSLESEDFVDYYCLQYASSPYTFGGGTKLEIK
notes: Mouse monoclonal; also called 409 v2; aNRP2-409v2
Turning to B2, the binding result is given as “no binding” with NRP2v3; “no binding” in assay [1]; “no binding (tested: 50 nM)” in assay [2]; “no binding (tested: 50 nM)” in assay [3]; “no binding (tested: 50 nM)” in [4]; “no binding (tested: 50 nM)” in assay [5]. Further, the binding result in assay [6], in [7], in assay [8], in [9], in assay [10] and in [11] was “no binding (tested: 50 nM)” each time. For the same molecule, the values for the binding result in assay [12] and in assay [14] were “no binding (tested: 50 nM)” and “no binding (tested: <3x blank)”, respectively.

B3: aNRP2-405v2 (antibody, V domains shown)
VH: EVMLVESGGGLVKPGGSLKLSCAASGFTFRRYAMSWVRQTPEKGLEWVATITSGGSYTYYLDSVKGRITISRDNAKNTLYLQMSSLRSEDTAMYYCARHGIYGGFDYWGQGTTLTVSS
VL: DVLMTQTPLSLPVSLGDQASISCRSSQSIVHSDGNTYLEWYLQKPGQSPNLLIYKVSNRFSGVPDRFSGSGSGTDFTLKISRVEAEDLGIYYCFQGSHVPFTFGSGTKLEIK
notes: Mouse monoclonal
Consider B3, for which the binding result in the assay with NRP2v3 was “no binding”; in assay [1], “no binding”; in assay [2], “no binding (tested: 50 nM)”; in assay [3], “no binding (tested: 50 nM)”; in [4] it was “no binding (tested: 50 nM)”; in assay [5], “no binding (tested: 50 nM)”. For the same molecule, the binding result in assay [6], in assay [7], in assay [8], in assay [9], in assay [10] and in assay [11] was “no binding (tested: 50 nM)” each time. The binding result in assay [12] is recorded as “no binding (tested: 50 nM)”; in [14], “no binding (tested: <3x blank)”; in assay [15], “binds”; in assay [16], “binds”.
